Target: SARS-CoV-2 Spike S1 (Omicron), His-tagged (SARS-CoV-2 Omicron B.1.1.529 BA.1, strain)
Test: SPR

B1: S309 (sotrovimab) reference clone neutralizing antibody (antibody, V domains shown)
VH: not shown
VL: EIVLTQSPGTLSLSPGERATLSCRASQTVSSTSLAWYQQKPGQAPRLLIYGASSRATGIPDRFSGSGSGTDFTLTISRLEPEDFAVYYCQQHDTSLTFGGGTKVEIK
- Kd: 24.5 nM
- koff: 0.000395 s⁻¹
- kon: 16200 M⁻¹ s⁻¹

B2: LY-CoV1404 (bebtelovimab) reference clone neutralizing antibody (antibody, V domains shown)
VH: QITLKESGPTLVKPTQTLTLTCTFSGFSLSISGVGVGWLRQPPGKALEWLALIYWDDDKRYSPSLKSRLTISKDTSKNQVVLKMTNIDPVDTATYYCAHHSISTIFDHWGQGTLVTVSS
VL: QSALTQPASVSGSPGQSITISCTATSSDVGDYNYVSWYQQHPGKAPKLMIFEVSDRPSGISNRFSGSKSGNTASLTISGLQAEDEADYYCSSYTTSSAVFGGGTKLTVL
- Kd: 85.5 nM
- koff: 0.00677 s⁻¹
- kon: 79200 M⁻¹ s⁻¹

Source: PMC9359501 (Med (New York, N.Y.), 2022)
